Test results as given in a protein production outcome set (Wang et al. 2014).

Test: label from the status in PepcDB records

Sequence	protein production
MPSHTDENWELAIQTPAITDRSLAAGLAYAMGSRVNGISFDAATGLLMGKVRGTGPQPYSTSAKLVRKPSGWSCTVGICNCPVRKDCKHVAALLFTAEDHPTIRAQLLSQAPGIQTSRVGSGQQGGSARPAWEQALNRLITKPGTAPSAAGIPLALQFEVEEPAAHFSYTGRRDPMRSVRQLKARPVMMGAKGKWIRGDVSWNNLSYVSFRREFNEVHVEWLQTFLAAHGSSNGRQQPSGAMWLSLNDFAAKNLWTLLAEATKAGIPLIHSAGSEPVRVETQPAVVGLSLARLATDPDTAKHEAPDGGLQLAPSVTLGGEAVDPGSVGFLGKPANGIFFTHSGDSLPGVPQQKNLITLAPMEGGISDELLEFVMDGDTLQIPAEDESRFLTSFYPKLRQSTPVQAADESVELPTLAVPTLSLLANYGNDHKVRLHWEWHYKSGTLVTSQPLWRHPDDRGYRDDLEEARILESLGRPWDVVPALAESATGGWGAPRIAASAELSGLDTLAFTEEVLPALKDLPDVVVETSGDIADYREAAEAPVVSISTKETASGDWFDLGIVITLEGEPVSFAAVFSALAAGMSRMLLPSGAYFSLDLPELHQLRALIDEARSLQDNPDNKDGTLQISRFQAGLWDELAQLGIVDEQAAAWREAVGGLLDDGVTGLPLPAGLNAELRPYQLEGFNWLSFLYKHSLGGVLADDMGLGKTVQAIALICAAKDLAAETAAAAQGDASEVVPRAPFLVVAPTSVVSNWAAEAQRFAPGLVVRTVGETFAKSGMAPAEALAGADVVITSYALFRIDYDAYASFQWAGLMLDEAQFVKNHQSKAYQCARKLPARFKLAITGTPLENNLMEFWALTSIVAPGLFPSPKRFAENYQKPVEKNGDSAQLGKLRRRVRPLMMRRTKEQVIKDLPPKQEQILEVVLNPRHQKVYQTHLQRERQKILGLIDDVNKNRFTIFQSLTLLRQLSLDASLVDSSLSGVRSSKLDVLFEQLEDLISEGHRALIFSQFTGFLGKVRERLDAEGVEYCYLDGSTRNRGDVVSEFKNGAAPVFLISLKAGGFGLNLTEADYVFLLDPWWNPASEAQAVDRTHRIGQARNVMVYRLVAKDTIEEKVMALKAKKSQLFADVMEGDALAGGSLTADDLAALFAE	failed
MASLWFGLIASSALVIGAFVGVRFELPKRLLAILLSFAAGSLITALAFELFEDAYEQGGIVRAALGLLAGAIVFTALSALLDRWAQPGGKSTTKAADEIQGSPKLDTDAAASDKAATSASTRGAAGMALLAAVTLDGVPENLALGISLGEGSGGLALLAAIFVSNLPEALVGASSMKSQGRKAGPIMLLWSVCAVLLVAAVVLGAGPLSSAEPATISLPLAFAAGAVIASLADTLMPEAYEHGGPAVALSTAAGFVLSFTLSLA	failed
MNTLFFSRQQYWLALIFGCLLVFLAASLGHGQWLDYAQRVATLDEPLSRLRWIVGDISEVAFYKHELPALGLLLGACLAHWAQLRGYRWQGFAICYGSGLWPWVFTSSLLGLLLSHVLWGWTLASGTWQPTFVAFVSLPAAMVLLFGAGWRVTITGALLGALLVTPAGLLMVNYLCYPLQLPVVVGNVSGMAVASVVAFILCKRFPSWVRQCGEPTVVAPVVNQPDYGVVWTLRRVLADFSEAPFFGNELASLGLLLGVLLAYLLSPAALSYGSMLVMQMVAGQALASLVGVVLWRGQWKARGWYPTYIPIVSIVPAAVLTHGGSWQVVVASAVLGALVAPPLAVAITQRLPAYVHGYIGNVVSMAICTLGIVPVVGLLVGGEA	failed
MKILAIINPISGIGSKSNIPSLIADVFAHDPHELFITYSQRAGHARELAAQAVEKHYDCVIAVGGDGTVNEIAQSLRYTDVVLGIVPKGSGNGLARALKLPLTVGKALEVIRAGHVRTIDCCEADSR	failed
MTMAVGTFKQSRFQLPLPRLSVMDRYLFVELFLPFIFGMGMFTSLALSIGTLFDLVRRVTESGLPMDIAVKILFLKMPEFVVLAFPMSMLLASLMAYSRLSSDSELIALRSIGVSIYRLVVPALLFGIVVTGIAFVFNDRITPAASYEALATLDRAIHQDRPPRQEQNIIYPEYGMVRQPDGNEKNILKRLFYAEEFNGSEMKGLTILDRTQSGVNQVLTAERASWNISENTWDFYDGTVYLIAPDGSYRNIVRFRHQQLALPRAPLDLASQERKDGEMTIAQSRRYLEVLRLSGDDKKVRKLEVRIQKKYALPFVCFVFGLIGAAIGVRPQNTNKATSFGICVGLIFFYYLLSFLSESMGIWGALDPFTAAWLPNFLGLIAGTILLVQSSRLR	failed
MNISLSRVHFPVTTLGPGQRLGLWFQGCSIRCAGCISADTWGPGKHPLPLAQVLDDLQPWLARAEGITLSGGEPFDQPEALLALLRGLRERTGVDILVYSGHSLETLQPLLQQAEGLLDALICDPFEQQQAQTLVLRGSDNQRLIFLTELGRQRLSTYQRPLHHEDRALDVMFDDDGSVWMAGIPRRDDVLRLRDLLHDQGHQLQISAHTSRRRLEHHHHHH	failed
MFRWERSIPLRGSAAALCNNLSVLQLPARNLTYFGVVHGPSAQLLSAAPEGVPLAQRQLHAKEGAGVSPPLITQVHWCVLPFRVLLVLTSHRGIQMYESNGYTMVYWHALDSGDASPVQAVFARGIAASGHFICVGTWSGRVLVFDIPAKGPNIVLSEELAGHQMPITDIATEPAQGQDCVADMVTADDSGLLCVWRSGPEFTLLTRIPGFGVPCPSVQLWQGIIAAGYGNGQVHLYEATTGNLHVQINAHARAICALDLASEVGKLLSAGEDTFVHIWKLSRNPESGYIEVEHCHGECVADTQLCGARFCDSSGNSFAVTGYDLAEIRRFSSV	failed
MKNTIDVENDSIIAFTGGRIFTMDSEQKHAETVVINGGCIAAVGDRSILKSFPNAKIRDLKGRVLLPAFIDSHNHLSSFGCFFPTWANLIGLTEKGSVLEEIQLQTRKKPGKGWIVGFGWFDAKIGGVDLTKNDLDEISSDRPVLLIQATFHQSVVNSRALELVGITRSTPDPRCGIILRESDGMPTGVLVECAQVPVFRLAMEADTGTLANLIEAHAKELLKFGITAVHDPGVTPAAEAAYQKLHSEERLPVSVLMMPHGETILDNQLGYRLHGPVTGVGDERLRVGPVKLFADGATEETVAFSLKIGGQTINSGNYRDDFEEMLFAATEKGFRVCVHSFGNVTTDAVLTAFENAVTRAPAGFEMRPRLEHVTLISTSQIKRLAAMGGCACIQPQFLSRAQNTKQVVLDDGKWYAYGDLVKGGVTVASGSDNPGGFMDARDPIEGSVMGSTMSDGAGNAIFPDQVLPFEQWLWMYTAGGAYAGGQEKERGMLKKGMVADLVVLEGNLDPKNPPVVAETWVAGKQVYDHRV	failed
MSLTRNRTVALAIIDMQNDFVLPGAPACVEGAMGTVPVIAGLLAKARAEGWMVLHVVRAHRADGSDAEKSREHLFLEGGGLCVAGTPGAEIVAGLEPASGETVLVKTRFSAFMGTECDMLLRRRGVDTLLVSGTQYPNCIRGTAVDAFALDYDVVVVTDACSARTPGVAESNINDMRAMGITCVPLTALDDVLARREGHHHHHH	not failed
MRSWAIDLEEYLMSKALEGKSPGTVDRYRYELQRLLSYVNKAVRDITEGDISGYMRAYKAIRQVSNQTLKNVRAVYSSFFAWLRDRDRIRRNPMALVEAIKVLEHHHHHH	failed
